According to IntAct's records for PubMed 17803994:

B1: Cytochrome b-245 light chain (Homo sapiens), P13498 (parent)
chain: MGQIEWAMWANEQALASGLILITGGIVATAGRFTQWYFGAYSIVAGVFVCLLEYPRGKRKKGSTMERWGQKYMTAVVKLFGPFTRNYYVRAVLHLLLSVPAGFLLATILGTACLAIASGIYLLAAVRGEQWTPIEPKPRERPQIGGTIKQPPSNPPPRPPAEARKKPSEEEAAVAAGGPPGGPQVNPIPVTDEVV
partner: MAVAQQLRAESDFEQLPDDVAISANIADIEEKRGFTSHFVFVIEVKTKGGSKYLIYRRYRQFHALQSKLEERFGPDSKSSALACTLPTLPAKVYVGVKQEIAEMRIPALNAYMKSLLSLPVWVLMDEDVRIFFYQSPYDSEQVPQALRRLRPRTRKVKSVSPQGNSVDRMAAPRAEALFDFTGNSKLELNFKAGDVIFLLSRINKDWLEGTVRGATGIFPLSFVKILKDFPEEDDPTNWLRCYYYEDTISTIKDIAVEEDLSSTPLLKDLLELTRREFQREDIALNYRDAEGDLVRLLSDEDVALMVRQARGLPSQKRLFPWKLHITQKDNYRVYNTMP
B2: Cytochrome b-245 light chain (Homo sapiens), P13498 (parent)
chain: B1 chain
B3: Neutrophil cytosol factor 4 (Homo sapiens), Q15080 (parent)
chain: B1 partner
partner: B1 chain

Variants of: B1
Details: with ncf4_human NCF4, Q15080

effect of a mutation on the interaction	Variant
decreasing interaction	P156Q

Variants of: B2
Details: with ncf1_human NCF1, P14598
Sequence of ncf1_human NCF1, P14598 (P14598 whole entry): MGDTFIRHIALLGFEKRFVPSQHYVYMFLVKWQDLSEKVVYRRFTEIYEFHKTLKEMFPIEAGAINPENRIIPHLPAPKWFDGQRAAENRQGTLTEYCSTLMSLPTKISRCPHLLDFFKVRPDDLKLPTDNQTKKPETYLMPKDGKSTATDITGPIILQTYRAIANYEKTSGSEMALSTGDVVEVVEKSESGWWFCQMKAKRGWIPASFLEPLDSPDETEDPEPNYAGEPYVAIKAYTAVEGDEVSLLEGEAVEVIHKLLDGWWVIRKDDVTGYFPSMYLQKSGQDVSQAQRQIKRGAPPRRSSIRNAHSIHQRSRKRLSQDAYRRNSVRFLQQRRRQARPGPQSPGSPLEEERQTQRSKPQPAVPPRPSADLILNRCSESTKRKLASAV

effect of a mutation on the interaction	Variant
decreasing interaction	P156Q

Variants of: B3
Details: with cy24a_human CYBA

effect of a mutation on the interaction	Variant
decreasing interaction	W207R
